Experimental data as given in doi:10.1101/2023.12.18.572142 (bioRxiv, 2023).
Where two headings read alike, the source gives them in different places. Values belong to the molecule of their own block, whether it stands above or below them.

What was measured:
Test in all cases: SPR
cat Fcμ–J complex (cat) = target: cat Fcμ–J complex (cat)
[1] = target: T1, human Fcμ–J complex (pentameric IgM core: IgM-Fc pentamer and J chain) (human, UniProt P01871-1 106-453; P01591 23-159)
[2] = target: T1, human Fcμ–J complex (pentameric IgM …); remark: listed apart in the source
mouse Fcμ–J complex = target: T2, mouse Fcμ–J complex (mouse, UniProt P01872 104-454; P01592 22-159)
T2 sequence (looked up) 1: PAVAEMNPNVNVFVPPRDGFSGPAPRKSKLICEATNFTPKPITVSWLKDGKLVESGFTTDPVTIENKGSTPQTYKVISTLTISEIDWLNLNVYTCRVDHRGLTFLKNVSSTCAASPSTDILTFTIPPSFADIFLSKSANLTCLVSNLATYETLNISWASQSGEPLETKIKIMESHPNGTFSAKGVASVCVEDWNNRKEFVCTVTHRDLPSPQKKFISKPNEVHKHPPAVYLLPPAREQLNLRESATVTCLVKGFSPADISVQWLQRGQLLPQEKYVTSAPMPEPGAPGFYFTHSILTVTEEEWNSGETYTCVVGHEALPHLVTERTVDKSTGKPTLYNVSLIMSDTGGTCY
T2 sequence (looked up) 2: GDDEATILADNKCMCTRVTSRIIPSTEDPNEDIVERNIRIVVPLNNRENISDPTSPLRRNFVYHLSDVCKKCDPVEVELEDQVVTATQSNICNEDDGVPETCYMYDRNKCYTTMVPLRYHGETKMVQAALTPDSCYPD

[3] = target: T1, human Fcμ–J complex (pentameric IgM …); remark: listed apart in the source

Kd (cat Fcμ–J complex (cat)): 11 nM
Molecule: cat CD5L (3-SRCR isoform) (from UniProt A0A1E1GEY0 20-355) (natural protein)

Kd [1]: 7.2 nM
Kd [2]: 0.3 nM
B1: D1 domain of FcμR (domain or fragment, human)
chain: RILPEVKVEGELGGSVTIKCPLPEMHVRIYLCREMAGSGTCGTVVSTTNFIKAEYKGRVTLKQYPRKNLFLVEVTQLTESDSGVYACGAGMNTDRGKTQKVTLNVHS

Kd (mouse Fcμ–J complex): 5 nM
B2: mouse CD5L (natural protein, UniProt Q9QWK4 22-352, looked up)
chain: ESPTKVQLVGGAHRCEGRVEVEHNGQWGTVCDDGWDRRDVAVVCRELNCGAVIQTPRGASYQPPASEQRVLIQGVDCNGTEDTLAQCELNYDVFDCSHEEDAGAQCENPDSDLLFIPEDVRLVDGPGHCQGRVEVLHQSQWSTVCKAGWNLQVSKVVCRQLGCGRALLTYGSCNKNTQGKGPIWMGKMSCSGQEANLRSCLLSRLENNCTHGEDTWMECEDPFELKLVGGDTPCSGRLEVLHKGSWGSVCDDNWGEKEDQVVCKQLGCGKSLHPSPKTRKIYGPGAGRIWLDDVNCSGKEQSLEFCRHRLWGYHDCTHKEDVEVICTDFDV

Kd [3]: 30 nM
B3: human CD5L (CD5 antigen-like) (natural protein, UniProt O43866 20-347, looked up)
chain: SPSGVRLVGGLHRCEGRVEVEQKGQWGTVCDDGWDIKDVAVLCRELGCGAASGTPSGILYEPPAEKEQKVLIQSVSCTGTEDTLAQCEQEEVYDCSHDEDAGASCENPESSFSPVPEGVRLADGPGHCKGRVEVKHQNQWYTVCQTGWSLRAAKVVCRQLGCGRAVLTQKRCNKHAYGRKPIWLSQMSCSGREATLQDCPSGPWGKNTCNHDEDTWVECEDPFDLRLVGGDNLCSGRLEVLHKGVWGSVCDDNWGEKEDQVVCKQLGCGKSLSPSFRDRKCYGPGVGRIWLDNVRCSGEEQSLEQCQHRFWGFHDCTHQEDVAVICSG
